Laboratory results published in patent publication US20240324599A1, “PESTICIDAL ENZYMES FOR USE ON NEMATODES, INSECTS, AND MOLLUSKS” (priority 2023, published 2024).

Tests used:
Assay type in all cases: in vivo
[1] = system: Fall armyworm (Spodoptera frugiperda); experiment: Diet-surface overlay (DSO) bioassay; settings: number of individuals
Protocol: (§1) Diet-surface overlay bioassays are conducted with artificial diet mixes without antibiotics in 1.5 cm^2 cell bioassay trays(s). Artificial diets are commercially available from Southland Products Inc. Diets were prepared by dispersing 0.5 mL of molten diet to each 1.5 cm^2 cell. After solidification, 0.1 mL enzyme treatments were dispersed on top of diet in each cell and the tray was gently rocked in an orbital shaker to spread the liquid uniformly over the diet surface. Trays were placed under clean airflow until the surface of each cell was uniformly dried. One or two 16-cell sections were used per treatment (the number in larvae treated was 16 or 32).
(§2) One healthy first instar larva was placed into each treatment cell, each 16-cell section was covered with a re-sealable lid and incubated at 27° C. and light-dark period of 16:8 hrs. After 7 days, and according to the species, the number of individuals in the following developmental categories was recorded.
(§3) Negative/untreated controls were treated with filtered water and positive controls were treated with lethal doses of Bacillus thuringiensis subsp. Kurstaki (Btk) spores at 1000 ppm.

[2] = system: Btk resistant Diamondback moth; experiment: Diet-surface overlay (DSO) bioassay; settings: Table 47, Btk resistant
Protocol: as §1, §2
Diamondback moth (Plutella xylostella): Dead Larva (lack of movement), Larva Stage I (≤50% relative size), Larva Stage II (100% relative size, full size), Early Pupa (light green color), Late Pupa (light-dark brown color), and Adult.
as §3
However, both neutral proteases reduced the number of individuals reaching adult stage.

[3] = system: soybean cyst nematode (SCN, Heterodera glycines); experiment: Controlled environment soybean seed treatment trial: SCN cysts on roots; settings: for % Comparison to Control: base control = 100%
[4] = Table 50, esterases, n=32, dose per treatment in U/mL Diet

B1: Akanthomyces lecanii Acidic Chitinase 1 (Chit1) (protein, listed as Akanthomyces lecanii)
chain: MAKCTSPDRKCPAPLIDAPINSFMTDGWADTDIHWEGDSWNDSGTNIYGCLKQLNILKKHNRNFKVLLSIGGWTYSSNFPAPASTPEGRDTFAKSCVELVKNLGFDGIDIDWEYPKTAEEAGHFVELLAEVRKQLDEYSARAANNYHFELSVACPAGPDNFQKLNISGMDAYLDFWNLMAYDYAGSWDKNSGHQANLYPCKDAPGCTPFSTVAAVDYYTSNGVSPDKLVLGMPLYGRAFENCDGIGQPFQGVGQGTWEQGVYDYKKLPLEGAEEHKDDDSCATYCHNAESRTLVTYDTPELAKTKADFIKERGLGGGMWWESSADKAGDDSLIQVVVSELGGPEALKQQQNCISYPETKYDNLRDGLPDN
modifications: Acidic Chitinase 1 (Chit1-H195)
[1]; Table 48, chitinases, n = 32
  Larva Stage I: 4
  Larva Stage II: 5
  Larva Stage III: 8
  Larva Stage IV: 8
[1]; Table 48, chitinases, n = 32, dose per treatment in mU/mL Diet
  Dead Larva: 7
[2]; individuals of n = 32 after 7 days, mU/mL diet: SEQ 182 3.7, SEQ 185 0.6, water 1
  Dead Larva: 2
[2]; n = 32, doses as E97, water 0
  Early Pupa: 8
  Larva Stage I: 2
  Larva Stage II: 2
[2]; n = 32, doses as E97, water 7
  Adult: 1
[2]; n = 32, doses as E97, water 24
  Late Pupa: 17

B2: Trichoderma lixii trypsin-like protease (protein, listed as Trichoderma lixii)
chain: AAITPRGSDIVGGTTAALGEFPYIVSLSTGGSHFCGGVLIDSRTVVTAGHCTIDQRASSVKVRAGTLTWASGGTQVGVSSLTLHPSYTVDSQGVPDNDVGVWHLATAIPTSSTIGYATLPASGSDPAAGTTLTVAGWGTTSENSNSLPSTLRKVSVPVVARATCDSDYDGEISNNMFCAAVAAGGKDSCSGDSGGPIIDPSGTLVGVVSWGQGCAERGFPGVYTRLGNYVSFINSNRG
modifications: H182 trypsin-like protease
[3]; Table 11
  % Comparison to Control: 26%
[3]; Table 11, free enzyme seed treatment 2 fl oz/unit, soybean P18A98X, ILEVO 0.15 mg AI/seed, 3 weeks after inoculation, base control 71.4
  Average cysts per g of root tissue: 18.6 cysts per g of root tissue

B3: Bacillus pumulis Collagenase B (ColB) (protein, listed as Bacillus pumulis, listed as Bacillus pumilus)
chain: IVNGKRVITKKPELLAPAGNLEKLKIAVHYGADAVFIGGQEYGLRSNADNFTIEEIAEGVEFAKKYGAKIYVTTNIFAHNENMDGLEDYLKALGDANVAGIIVADPLIIETCRRVAPNVEVHLSTQQSLSNWKAVQFWKEEGLDRVVLARETSALEIREMKEKVDIEIESFIHGAMCIAYSGRCVLSNHMTARDSNRGGCCQSCRWDYDLYQTDGANAVALYGEEDAPFAMSPKDLKLIESIPKMIEMGIDSLKIEGRMKSIHYVATVVSVYRKVIDAYCADPENFVIQKEWLEELDKCANRDTATAFFEGTPGYEEQMFGEHAKKTTYDFVGLVLNYDEDTQMVTLQQRNFFKKGDEVEFFGPEIENFTHTIETIWDEDGNELDAARHPLQIVKFKLDKKIYPSNMMRKGK
modifications: Collagenase B (ColB)
[3]; Table 22, change in brackets
  % Comparison to Control: 15% (−85%)
[3]; Table 22, free enzyme seed treatment, soybean 2830E3, base control 470.7
  Average cysts per g of root tissue: 70.9 cysts per g of root tissue

B4: Chitinase C (protein, listed as Bacillus thuringiensis)
chain: DSPKQSQKIVGYFPSWGVYGRNYQVADIDASKLTHLNYAFADICWKGKHGNPSTHPDNPNKQTWNCKESGVPLQNKEVPNGTLVLGEPWADVTKSYPGSGTTWEDCDKYARCGNFGELKRLKAKYPHLKTIISVGGWTWSNRFSDMAADEKTRKVFAESTVAFLRAYGFDGVDLDWEYPGVETIPGGSYRPEDKQNFTLLLQDVRNALNKAGAEDGKQYLLTIASGASQRYADHTELKKISQILDWINIMTYDFHGGWEATSNHNAALYKDPNDPAANTNFYVDGAIDVYTNEGVPVDKLVLGVPFYGRGWKSCGKENNGQYQPCKPGSDGKLASKGTWDDYSTGDTGVYDYGDLTANYVNKNGFVRYWNDTAKVPYLYNATTGTFISYDDNESMKYKTDYIKTKGLSGAMFWELSGDCRTSPKYSCSGPKLLDTLVKELLGGPINQKDTEPPTNVKNIIVTNKTSSSVQLSWTASTDNVGVTEYEITAGEEKWSATTNSITIKNLKPNTEYTFSVIAKDASGNKSHPTALTVKTDEANTTPPDGNGTATFSVTSNWGSGYNFSIIIKNNGTIPIKNWKLEFDYSGNLTQVWDSKISSKTNNHYVITNAGWNGEIPPGGSITIGGAGTGNPAELLNAVISEN
[3]; Table 18, change in brackets
  % Comparison to Control: 78% (−22%)
[3]; Table 18, free enzyme seed treatment, base control 58.3
  Average cysts per g of root tissue: 45.7 cysts per g of root tissue

B5: Bacillus thuringiensis Lipase 1 (protein, listed as Bacillus thuringiensis)
chain: YGFVSGVNDVLNPKASNLIKKTDVVAKEKKKTGTLQIVSLGDSLTRGVGDKEGIGYVGRMKEDLQKDYKQKIALTNLAVSGAKMPDLLKQIESNGAQYSIKQADVIVLTIGGNDLFPGWESLGKIDLETYRPDTETFQNEAKKIIEEIRKLNTDSPIFWLGLYNPFEDVEDLKGSSNIVVDWNASLEKLALNDKNVYITPTFDLFQNRGKDLLYSDHFHPNEVGYTYMAERLVQNVVSKLKLEQGGVK
[3]; Table 19, change in brackets
  % Comparison to Control: 75% (−25%)
[3]; Table 19, free enzyme seed treatment, soybean 2830E3, base control 442.5
  Average cysts per g of root tissue: 332.0 cysts per g of root tissue

B6: Bacillus thuringiensis Lipase 2 (protein, listed as Bacillus thuringiensis)
chain: EVVKELGKGFPDTEVFTPGEWFLGQKPANYDENKPPILFVQGRNGNADSWYGKTVYHDINDMYDYALKAGYQTVFIQLYDAAGKGSASQWDNGKLLAQKLEEIYNYFGKKVNIVAHSKGGIDTQAALVEYGANRFVGNVITLATPHHGSNLADLSYSWWAGWLASILGQKDDGTYSLQIGEMAKFRSIIDNNPAAKLNRYYTATGTSWGPTFSALSMGGLYLSSYGSNDGLVNEWSAKLSYGTHLFTDSRFDHDNIRKGSAVFARIEPYLRTTNVGLPALVASSTSSNEDLEQLNTTSNQNILGGELPQNQWIEQSISVDKKAEGIVSVLTASSDVEVQMVSPKGKIYANKDSAITTGEGESFFNRATIRTFKFDKLEVGEWKIKMMAKQSKDAYLVVSDYKDDAPFVLRMPTKVKINKPEYKLKKSPVAPEMKGDLSITVRVVNKEGKLVSEFNELQNVNTNTFTGALKDIKQPGVYNVTMDIKGMNKEGKPYNRTIVKSVYVEK
[3]; Table 20, change in brackets
  % Comparison to Control: 57% (−43%)
[3]; Table 20, free enzyme seed treatment, soybean 2830E3, base control 459.7
  Average cysts per g of root tissue: 264.3 cysts per g of root tissue

B7: H6-pytH (SEQ ID NO: 95) (protein, listed as Sphingobium wenxiniae)
chain: MTVTDIILIHGALNRGACYDAVVPLLEARGYRVHAPDLTGHTPGDGGHLSVVDMEHYTRPVADILARAEGQSILLGHSLGGASISWLAQHHPDKVAGLIYLTAVLTAPGITPETFVLPGEPNRGTPHALDLIQPVDEGRGLQADFSRLERLREVFMGDYPGEGMPPAEQFIQTQSTVPFGTPNPMEGRALEIPRLYIEALDDVVIPIAVQRQMQKEFPGPVAVVSLPASHAPYYSMPERLAEAIADFADAPAEYRQTATKAGPDRPAGADGGRADRADLP
modifications: Esterase (pytH)
[1]; Table 50, esterases, n=32
  Larva Stage I: 0
  Larva Stage II: 0
  Larva Stage III: 13
  Larva Stage IV: 19
[1]; [4]
  Dead Larva: 0

B8: H6-pnbA (SEQ ID NO: 94) (protein, listed as Bacillus subtilis)
chain: MTHQIVTTQYGKVKGTTENGVHKWKGIPYAKPPVGQWRFKAPEPPEVWEDVLDATAYGSICPQPSDLLSLSYTELPRQSEDCLYVNVFAPDTPSKNLPVMVWIHGGAFYLGAGSEPLYDGSKLAAQGEVIVVTLNYRLGPFGFLHLSSFNEAYSDNLGLLDQAAALKWVRENISAFGGDPDNVTVFGESAGGMSIAALLAMPAAKGLFQKAIMESGASRTMTKEQAASTSAAFLQVLGINEGQLDKLHTVSAEDLLKAADQLRIAEKENIFQLFFQPALDPKTLPEEPEKAIAEGAASGIPLLIGTTRDEGYLFFTPDSDVHSQETLDAALEYLLGKPLAEKVADLYPRSLESQIHMMTDLLFWRPAVAYASAQSHYAPVWMYRFDWHPKKPPYNKAFHALELPFVFGNLDGLERMAKAEITDEVKQLSHTIQSAWITFAKTGNPSTEAVNWPAYHEETRETLILDSEITIENDPESEKRQKLFPSKGE
modifications: Esterase (pnbA)
[1]; Table 50, esterases, n=32
  Larva Stage I: 0
  Larva Stage II: 0
  Larva Stage III: 15
  Larva Stage IV: 17
[1]; [4]
  Dead Larva: 0

B9: Pseudomonas sp. esterase free enzyme concentrate (SEQ ID NO: 248): free enzyme concentrated in an Amicon Ultra 4K filter unit (protein, listed as Pseudomonas sp.)
chain: MTEPLILQPVKPADACVIWLHGLGADRYDFLPVAEALQEILLSTRFVLPQAPTRPVTINGGYAMPSWYDIKAMSPARAIDRDELEASADRIIELIEEQRSSGIDASRIFLAGFSQGGAVVYHTAFLKWQGPLGGVLALSTYAPTFSDELELSASQQRIPVLSLHGQFDNVVQNSMGRTAYEYLKAHGVTVTWQEYPMEHEVLPEEIRDIGTWLSERLR
[3]; Table 16, change in brackets
  % Comparison to Control: 75% (−25%)
[3]; Table 16, seed treatment, soybean 2830E3, concentrate = 4× volumetric concentration, base control 244.3
  Average cysts per g of root tissue: 182.1 cysts per g of root tissue
